In patent US20130323302A1:

Target: recombinant VEGF (UniProt P15692)
Assay: cell-based or functional assay

Sequence of recombinant VEGF (P15692 other isoform, or with tags, fused parts or gaps limits assumed): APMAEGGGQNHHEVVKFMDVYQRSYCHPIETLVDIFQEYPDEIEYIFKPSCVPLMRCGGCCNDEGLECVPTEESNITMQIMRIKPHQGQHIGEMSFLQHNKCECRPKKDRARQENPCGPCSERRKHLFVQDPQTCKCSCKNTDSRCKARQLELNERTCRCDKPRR

inhibition of VEGF-induced proliferation of HUVECs (MTT assay), 40 µL conditioned medium from rAAV.sFlt-1-transduced 293 cells: 32%
Substance: soluble Fms-related tyrosine kinase-1 (sFLT-1) protein, human, secreted by rAAV.sFlt-1-transduced 293 cells (from UniProt P17948 27-450)
